The supplement of paper PMC10567573

B1: MYL5 (parent)
chain: DVAGNLDYKALSYVITHGEEKEE

Variants of: B1
Test: protein stability index of a GFP-peptide fusion (GPS, HEK-293T) (PSI 1-6); higher = more stable
Details: c terminus: native
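Further: lentivirally expressed fusions sorted by FACS into six bins by GFP to DsRed ratio, PSI derived from sequencing read proportions per bin multiplied by bin number.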

Q: Which protein stability index does the source give for DVAGNLDYKALSYVNTHGEEKEE [I15N] here?
A: The protein stability index was 2.63.

Q: With DVAGNLDYKALSYVITHGEEKED [E23D] as the variant, how does the protein stability index read?
A: The protein stability index was 4.94.

Q: Which protein stability index does the source give for DAAGNLDYKALSYVITHGEEKEE [V2A] here?
A: The protein stability index was 1.64.

Q: With DVAGNFDYKALSYVITHGEEKEE [L6F] as the variant, how does the protein stability index read?
A: Its protein stability index is 2.82.

Q: With DVAGNLDYFALSYVITHGEEKEE [K9F] as the variant, how does the protein stability index read?
A: The protein stability index was 2.23.

Q: With DVAGNLEYKALSYVITHGEEKEE [D7E] as the variant, how does the protein stability index read?
A: Its protein stability index is 2.29.

Q: With DVAGNEDYKALSYVITHGEEKEE [L6E] as the variant, how does the protein stability index read?
A: The protein stability index was 2.52.

Q: Which protein stability index does the source give for DVIGNLDYKALSYVITHGEEKEE [A3I] here?
A: The protein stability index was 1.71.

Q: For DVAGNLDYKALSYVITEGEEKEE [H17E], which protein stability index is on record?
A: Its protein stability index is 2.25.

Q: Which protein stability index does the source give for DVAGNLDYKALSYVITHGEEKEN [E23N] here?
A: The protein stability index was 4.99.

Q: With DVAGNLDYKALSYVITHGEEKGE [E22G] as the variant, how does the protein stability index read?
A: The protein stability index was 4.27.

Q: With DVAGNLDYKALSYEITHGEEKEE [V14E] as the variant, how does the protein stability index read?
A: Its protein stability index is 2.51.

Q: For DVAGNLDYKILSYVITHGEEKEE [A10I], which protein stability index is on record?
A: The protein stability index was 2.24.

Q: Which protein stability index does the source give for DVAGNLDYKYLSYVITHGEEKEE [A10Y] here?
A: Its protein stability index is 1.22.

Q: For DVAGNLDYKALSYVITHGEECEE [K21C], which protein stability index is on record?
A: Its protein stability index is 2.53.

Q: With DVAINLDYKALSYVITHGEEKEE [G4I] as the variant, how does the protein stability index read?
A: The protein stability index was 1.46.

Q: Which protein stability index does the source give for DVAGNLDYKALSYVITHAEEKEE [G18A] here?
A: Its protein stability index is 1.45.

Q: Which protein stability index does the source give for CVAGNLDYKALSYVITHGEEKEE [D1C] here?
A: Its protein stability index is 2.21.

Q: With DVAGNLDYKALSYVETHGEEKEE [I15E] as the variant, how does the protein stability index read?
A: Its protein stability index is 3.02.

Q: Which protein stability index does the source give for FVAGNLDYKALSYVITHGEEKEE [D1F] here?
A: Its protein stability index is 2.11.

Q: With DVAGNLDYKATSYVITHGEEKEE [L11T] as the variant, how does the protein stability index read?
A: The protein stability index was 2.81.

Q: Which protein stability index does the source give for DVAGNLDYKALSYVITWGEEKEE [H17W] here?
A: The protein stability index was 1.79.

Q: With DVAGNLDYKALSYVITHGEEKDE [E22D] as the variant, how does the protein stability index read?
A: Its protein stability index is 4.71.

Q: For DVAGNLDYKALSYVITHGEEFEE [K21F], which protein stability index is on record?
A: Its protein stability index is 1.37.

Q: Which protein stability index does the source give for DVAGNLDYKALSYVATHGEEKEE [I15A] here?
A: The protein stability index was 2.1.

Q: With DVAGNLDYKALSYVINHGEEKEE [T16N] as the variant, how does the protein stability index read?
A: Its protein stability index is 3.03.

Q: For DVAGNLDYMALSYVITHGEEKEE [K9M], which protein stability index is on record?
A: Its protein stability index is 1.6.

Q: Which protein stability index does the source give for DVAGNLDYKSLSYVITHGEEKEE [A10S] here?
A: Its protein stability index is 2.08.

Q: For DVAGNLRYKALSYVITHGEEKEE [D7R], which protein stability index is on record?
A: The protein stability index was 1.69.

Q: Which protein stability index does the source give for DVAGNLDYKALSYVIEHGEEKEE [T16E] here?
A: The protein stability index was 1.99.

Q: With DVAGNLDYKALSYVITGGEEKEE [H17G] as the variant, how does the protein stability index read?
A: Its protein stability index is 2.4.

Q: With DVAGNLDYKALSYVITHGEEHEE [K21H] as the variant, how does the protein stability index read?
A: The protein stability index was 1.6.

Q: Which protein stability index does the source give for DVAGNLDYKACSYVITHGEEKEE [L11C] here?
A: Its protein stability index is 2.64.

Q: With DVAGNLDYKALSYVITHMEEKEE [G18M] as the variant, how does the protein stability index read?
A: Its protein stability index is 2.07.

Q: For DIAGNLDYKALSYVITHGEEKEE [V2I], which protein stability index is on record?
A: The protein stability index was 2.61.

Q: For DVAGNLDYKALSYVITHGEYKEE [E20Y], which protein stability index is on record?
A: The protein stability index was 2.61.

Q: For DVAGILDYKALSYVITHGEEKEE [N5I], which protein stability index is on record?
A: The protein stability index was 2.54.

Q: Which protein stability index does the source give for DVAGNPDYKALSYVITHGEEKEE [L6P] here?
A: Its protein stability index is 2.01.

Q: Which protein stability index does the source give for DVAGNHDYKALSYVITHGEEKEE [L6H] here?
A: The protein stability index was 2.28.

Q: With DVAGNLDYDALSYVITHGEEKEE [K9D] as the variant, how does the protein stability index read?
A: Its protein stability index is 2.57.

Q: Which protein stability index does the source give for PVAGNLDYKALSYVITHGEEKEE [D1P] here?
A: Its protein stability index is 1.66.

Q: Which protein stability index does the source give for IVAGNLDYKALSYVITHGEEKEE [D1I] here?
A: Its protein stability index is 1.97.

Q: Which protein stability index does the source give for DVAGNLDYKALIYVITHGEEKEE [S12I] here?
A: Its protein stability index is 2.45.

Q: For DVAGRLDYKALSYVITHGEEKEE [N5R], which protein stability index is on record?
A: Its protein stability index is 1.67.

Q: With DVTGNLDYKALSYVITHGEEKEE [A3T] as the variant, how does the protein stability index read?
A: Its protein stability index is 2.21.

Q: With DVAFNLDYKALSYVITHGEEKEE [G4F] as the variant, how does the protein stability index read?
A: The protein stability index was 1.77.

Q: Which protein stability index does the source give for DFAGNLDYKALSYVITHGEEKEE [V2F] here?
A: The protein stability index was 1.19.

Q: With DVAGNLDYKALSVVITHGEEKEE [Y13V] as the variant, how does the protein stability index read?
A: Its protein stability index is 1.75.

Q: With DVAGNLDKKALSYVITHGEEKEE [Y8K] as the variant, how does the protein stability index read?
A: The protein stability index was 1.39.

Q: Which protein stability index does the source give for DVAGNLDYKALSYVIIHGEEKEE [T16I] here?
A: Its protein stability index is 2.33.

Q: Which protein stability index does the source give for DVAGNLDYKALSYVITHGEEKWE [E22W] here?
A: The protein stability index was 3.59.

Q: For DVAGNLDYTALSYVITHGEEKEE [K9T], which protein stability index is on record?
A: The protein stability index was 2.18.

Q: With DVAGNLDYKALPYVITHGEEKEE [S12P] as the variant, how does the protein stability index read?
A: Its protein stability index is 2.46.

Q: With DVAMNLDYKALSYVITHGEEKEE [G4M] as the variant, how does the protein stability index read?
A: Its protein stability index is 1.59.

Q: For DVACNLDYKALSYVITHGEEKEE [G4C], which protein stability index is on record?
A: Its protein stability index is 2.45.

Q: With DVAGNLDYKALSYVCTHGEEKEE [I15C] as the variant, how does the protein stability index read?
A: The protein stability index was 2.95.

Q: With DVDGNLDYKALSYVITHGEEKEE [A3D] as the variant, how does the protein stability index read?
A: Its protein stability index is 1.87.

Q: For DVAGNLDYKALSYVITHGKEKEE [E19K], which protein stability index is on record?
A: Its protein stability index is 3.27.

Q: Which protein stability index does the source give for DCAGNLDYKALSYVITHGEEKEE [V2C] here?
A: Its protein stability index is 2.31.

Q: For DVAGNLDYKALSYVITHGEEEEE [K21E], which protein stability index is on record?
A: Its protein stability index is 3.8.

Q: Which protein stability index does the source give for DVAGNLDYKALSYVYTHGEEKEE [I15Y] here?
A: Its protein stability index is 3.01.

Q: With DVAGWLDYKALSYVITHGEEKEE [N5W] as the variant, how does the protein stability index read?
A: The protein stability index was 1.83.

Q: With DVAGNLDYKALRYVITHGEEKEE [S12R] as the variant, how does the protein stability index read?
A: The protein stability index was 1.99.

Q: For DVAGNLDYKALSYVITMGEEKEE [H17M], which protein stability index is on record?
A: Its protein stability index is 1.64.

Q: Which protein stability index does the source give for DVAGNQDYKALSYVITHGEEKEE [L6Q] here?
A: The protein stability index was 1.93.

Q: With DVAGNLDYKALSYVITHFEEKEE [G18F] as the variant, how does the protein stability index read?
A: The protein stability index was 1.88.

Q: With DRAGNLDYKALSYVITHGEEKEE [V2R] as the variant, how does the protein stability index read?
A: Its protein stability index is 2.3.

Q: Which protein stability index does the source give for DGAGNLDYKALSYVITHGEEKEE [V2G] here?
A: Its protein stability index is 2.06.

Q: For DVAGNLDVKALSYVITHGEEKEE [Y8V], which protein stability index is on record?
A: The protein stability index was 2.62.

Q: For DVAGNLDYKALSYVITHGETKEE [E20T], which protein stability index is on record?
A: Its protein stability index is 2.31.

Q: Which protein stability index does the source give for DVAGNLNYKALSYVITHGEEKEE [D7N] here?
A: Its protein stability index is 1.91.

Q: With DVAGNLDYKALSYVITHGEEKIE [E22I] as the variant, how does the protein stability index read?
A: Its protein stability index is 4.14.

Q: For DVAGNLDYKALSYVITHGEAKEE [E20A], which protein stability index is on record?
A: The protein stability index was 3.08.

Q: With DVAGNLDYKALSYVIQHGEEKEE [T16Q] as the variant, how does the protein stability index read?
A: The protein stability index was 2.56.

Q: Which protein stability index does the source give for DVAGNLDYKALSYVITHGECKEE [E20C] here?
A: The protein stability index was 1.47.

Q: For DVAGNLDYKALSYVITHGEEKLE [E22L], which protein stability index is on record?
A: The protein stability index was 4.25.

Q: Which protein stability index does the source give for DVAGNLDYKALSYVITHGEEKPE [E22P] here?
A: The protein stability index was 4.22.

Q: For DVAGNLDYKALSYVITHGDEKEE [E19D], which protein stability index is on record?
A: The protein stability index was 2.23.

Q: With DVAGNLHYKALSYVITHGEEKEE [D7H] as the variant, how does the protein stability index read?
A: Its protein stability index is 2.83.

Q: For DVAPNLDYKALSYVITHGEEKEE [G4P], which protein stability index is on record?
A: Its protein stability index is 1.61.

Q: Which protein stability index does the source give for DVAGNLDYKWLSYVITHGEEKEE [A10W] here?
A: Its protein stability index is 4.9.

Q: With DVAGNLDYKALSYVITHGEEKQE [E22Q] as the variant, how does the protein stability index read?
A: Its protein stability index is 4.82.

Q: With DVAGNLFYKALSYVITHGEEKEE [D7F] as the variant, how does the protein stability index read?
A: Its protein stability index is 1.04.

Q: With DVAGNLDTKALSYVITHGEEKEE [Y8T] as the variant, how does the protein stability index read?
A: The protein stability index was 1.42.

Q: With DVAGNLDYKALSMVITHGEEKEE [Y13M] as the variant, how does the protein stability index read?
A: The protein stability index was 2.08.

Q: With DVAGNLDYKALSYVQTHGEEKEE [I15Q] as the variant, how does the protein stability index read?
A: Its protein stability index is 2.17.

Q: For DVAQNLDYKALSYVITHGEEKEE [G4Q], which protein stability index is on record?
A: The protein stability index was 1.8.

Q: Which protein stability index does the source give for DVAGNLDYKALSYVDTHGEEKEE [I15D] here?
A: Its protein stability index is 2.31.

Q: For DVAGNLDYKALSYVITHGEEWEE [K21W], which protein stability index is on record?
A: The protein stability index was 1.95.

Q: Which protein stability index does the source give for DVAGNLDYKALSYNITHGEEKEE [V14N] here?
A: Its protein stability index is 3.53.

Q: For DVAGNLVYKALSYVITHGEEKEE [D7V], which protein stability index is on record?
A: Its protein stability index is 1.96.

Q: Which protein stability index does the source give for DVAANLDYKALSYVITHGEEKEE [G4A] here?
A: Its protein stability index is 2.02.

Q: With DVAGNLDYKRLSYVITHGEEKEE [A10R] as the variant, how does the protein stability index read?
A: Its protein stability index is 1.74.

Q: For DVAGNLDYKALSIVITHGEEKEE [Y13I], which protein stability index is on record?
A: The protein stability index was 2.14.

Q: Which protein stability index does the source give for DVAGNLDYKALSYVITHGEEPEE [K21P] here?
A: Its protein stability index is 1.72.

Q: For DVAGNLDYKALSYVITHGERKEE [E20R], which protein stability index is on record?
A: The protein stability index was 2.46.

Q: For DVAGNLDYKALSYVRTHGEEKEE [I15R], which protein stability index is on record?
A: The protein stability index was 2.73.
